From patent publication US20080318246A1 (ALBERT EINSTEIN COLLEGE OF MEDICINE OF YESHIVA UNIVERSITY, published 2008)
Square brackets hold non-standard residues; d marks the D form. Carminic acid = quencher bound covalently; Ala(Pyr) = not defined here; Dap = NC[C@H](N)C(=O)O

Molecular target: T1, 14-3-3τ (UniProt P27348 1-245)
T1 sequence (looked up): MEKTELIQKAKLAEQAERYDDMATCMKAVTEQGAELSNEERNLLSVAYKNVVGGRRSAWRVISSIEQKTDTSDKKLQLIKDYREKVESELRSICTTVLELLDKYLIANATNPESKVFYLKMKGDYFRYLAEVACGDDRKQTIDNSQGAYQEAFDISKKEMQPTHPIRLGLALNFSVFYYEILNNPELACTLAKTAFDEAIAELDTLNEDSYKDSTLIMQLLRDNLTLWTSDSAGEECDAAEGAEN
Test: cell-based or functional assay

- fold increase in fluorescence upon phosphorylation by PKA: 2.2 fold
Binder: Ac-G[Ala(Pyr)]TGRR[Dap](Carminic acid)SLPA-NH2 (reading uncertain; also: Ser phosphorylated by PKA in the assay) [P14, AcGAla(Pyr)TGRRDap(Carminic acid)SLPA-amide, serine-phosphorylated by PKA in the assay]
